# Experimental data reported in publication PMC12319226 (Frontiers in Bioinformatics, 2025).
# T1: fHbp m001720 (Neisseria meningitidis, engineered fHbp …, point mutant)
# T1 chain: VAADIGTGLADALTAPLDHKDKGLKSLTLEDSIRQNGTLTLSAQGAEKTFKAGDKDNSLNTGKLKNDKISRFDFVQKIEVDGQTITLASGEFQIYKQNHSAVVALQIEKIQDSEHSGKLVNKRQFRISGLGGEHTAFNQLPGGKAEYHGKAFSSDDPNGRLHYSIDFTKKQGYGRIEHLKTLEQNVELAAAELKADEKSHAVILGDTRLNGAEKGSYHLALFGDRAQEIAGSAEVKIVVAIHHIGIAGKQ
# T2: fHbp m001847 (Neisseria meningitidis, engineered fHbp …, chimera)
# T2 chain: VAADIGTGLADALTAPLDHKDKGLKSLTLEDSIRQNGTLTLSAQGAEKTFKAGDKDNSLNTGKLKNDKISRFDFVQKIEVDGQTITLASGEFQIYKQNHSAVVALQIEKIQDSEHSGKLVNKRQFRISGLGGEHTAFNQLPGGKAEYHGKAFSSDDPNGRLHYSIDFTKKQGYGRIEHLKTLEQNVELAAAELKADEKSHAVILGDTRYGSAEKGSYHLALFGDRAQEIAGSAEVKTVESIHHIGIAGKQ
# T3: fHbp m002336 (Neisseria meningitidis fHbp v3.28, …, chimera)
# T3 chain: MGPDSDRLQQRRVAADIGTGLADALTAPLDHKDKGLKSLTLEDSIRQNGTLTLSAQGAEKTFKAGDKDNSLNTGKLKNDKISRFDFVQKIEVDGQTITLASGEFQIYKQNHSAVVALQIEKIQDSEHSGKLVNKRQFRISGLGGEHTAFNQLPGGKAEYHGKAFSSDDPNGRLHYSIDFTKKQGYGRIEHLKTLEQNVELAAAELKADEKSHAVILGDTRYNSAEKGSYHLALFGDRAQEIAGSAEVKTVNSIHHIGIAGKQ
# T4: fHbp m001200 (Neisseria meningitidis fHbp v3.28-based …, point mutant)
# T4 chain: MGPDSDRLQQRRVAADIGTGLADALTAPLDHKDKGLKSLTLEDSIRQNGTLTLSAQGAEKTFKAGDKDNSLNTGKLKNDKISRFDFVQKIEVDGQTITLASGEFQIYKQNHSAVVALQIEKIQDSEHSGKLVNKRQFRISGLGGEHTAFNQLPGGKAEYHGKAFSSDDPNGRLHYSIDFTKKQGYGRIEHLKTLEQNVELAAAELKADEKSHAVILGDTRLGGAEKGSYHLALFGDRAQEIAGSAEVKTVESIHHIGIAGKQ
# T5: fHbp m002333 (Neisseria meningitidis, engineered fHbp …, chimera)
# T5 chain: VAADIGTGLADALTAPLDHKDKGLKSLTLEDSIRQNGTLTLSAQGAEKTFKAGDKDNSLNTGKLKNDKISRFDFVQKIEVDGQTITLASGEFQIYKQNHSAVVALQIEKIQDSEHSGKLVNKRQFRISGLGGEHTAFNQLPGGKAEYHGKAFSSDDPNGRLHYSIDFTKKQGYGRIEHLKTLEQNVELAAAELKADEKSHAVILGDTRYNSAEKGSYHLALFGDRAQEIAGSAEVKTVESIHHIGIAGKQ
# T6: fHbp m001497 (Neisseria meningitidis, fHbp …, point mutant)
# T6 chain: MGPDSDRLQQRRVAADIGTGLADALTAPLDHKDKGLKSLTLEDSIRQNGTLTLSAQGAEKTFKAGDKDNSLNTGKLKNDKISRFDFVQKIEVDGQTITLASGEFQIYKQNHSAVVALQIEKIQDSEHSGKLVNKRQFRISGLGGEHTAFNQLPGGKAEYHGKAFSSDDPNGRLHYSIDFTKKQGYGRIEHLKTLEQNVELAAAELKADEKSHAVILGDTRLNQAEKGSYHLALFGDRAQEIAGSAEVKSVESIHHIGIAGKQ
# T7: fHbp m002417 (Neisseria meningitidis fHbp v3.28, …, chimera)
# T7 chain: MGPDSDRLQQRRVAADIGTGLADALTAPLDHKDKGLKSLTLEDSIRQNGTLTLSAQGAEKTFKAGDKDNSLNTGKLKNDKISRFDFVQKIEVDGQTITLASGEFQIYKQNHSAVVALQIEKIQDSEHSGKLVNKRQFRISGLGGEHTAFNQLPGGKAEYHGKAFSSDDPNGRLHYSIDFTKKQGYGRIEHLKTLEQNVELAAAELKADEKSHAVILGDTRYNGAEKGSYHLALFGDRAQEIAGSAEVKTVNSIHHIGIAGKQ
# T8: fHbp m001199 (Neisseria meningitidis fHbp v3.28-based …, point mutant)
# T8 chain: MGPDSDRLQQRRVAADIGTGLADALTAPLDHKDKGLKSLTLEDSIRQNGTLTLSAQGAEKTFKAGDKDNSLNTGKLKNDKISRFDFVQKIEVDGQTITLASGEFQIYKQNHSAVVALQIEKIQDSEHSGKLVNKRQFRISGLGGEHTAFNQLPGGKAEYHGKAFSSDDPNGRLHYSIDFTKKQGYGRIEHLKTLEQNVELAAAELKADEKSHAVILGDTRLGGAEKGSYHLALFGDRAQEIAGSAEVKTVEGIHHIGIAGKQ
# T9: fHbp m001015 (Neisseria meningitidis fHbp v3.28, …, point mutant)
# T9 chain: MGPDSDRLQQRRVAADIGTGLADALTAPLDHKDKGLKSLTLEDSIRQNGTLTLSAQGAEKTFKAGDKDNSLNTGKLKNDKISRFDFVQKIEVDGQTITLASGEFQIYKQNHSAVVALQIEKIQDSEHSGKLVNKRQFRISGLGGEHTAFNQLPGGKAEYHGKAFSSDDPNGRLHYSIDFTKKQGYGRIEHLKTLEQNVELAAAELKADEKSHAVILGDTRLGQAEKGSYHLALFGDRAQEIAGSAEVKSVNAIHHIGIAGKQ
# B1: mAb 1E6 (human) (antibody, V domains shown)
# VH: EVQLVQSGAEVKKPGSSVKVSCKASGGTVIDYPITWVRQAPGQGLEWVGGFVPLFRTSNYGQKFQGRVTITADKSTSTASMELNSLTSEDTAIYYCARGDTAMGPFDYWGQGTLVTVSS
# VL: SYVLTQPPSLSVAPGKTATLTCGGNNIAGKTVHWYQQRPGQAPVLVISYDSDRPSGIPERFSGSNSANTATLTISRVEAGDEADYYCQVWDRNSDHWVFGGGTKLTVL
# notes: source: Expi293, purified (MabSelect SuRe, SEC); copies: 2 + 2
# B2: chimeric antibody h12C1 (antibody, V domains shown)
# VH: QVQLQESGPELVKPGASVKISCKASGYSFSDYNMSWVKQSNGKSLEWIGIIDPKYGTINYNQKFKGKATLTVDQASSTAYMQLNSLTSEDSAVYYCVRDYYGSSYFDYWGQGTTLTVSS
# VL: DIVLTQSPSSIYASLGERVTLTCKASQDIHNYLNWFQQKPGKSPKTLIYRANRLVDGVPSRFSGGGSGQDYSLTISSLEFEDIGIYYCLQYDEFPPTFGGGTRLEIK
# notes: also called humanized 12C1; source: Expi293, purified (MabSelect SuRe, SEC); copies: 2 + 2
# Assays:
# Experiment in all cases: BLI
# Conditions in all cases: both partners purified
# fHbp m001720 = biological target: T1, fHbp m001720
# fHbp m001847 = biological target: T2, fHbp m001847
# fHbp m002336 = biological target: T3, fHbp m002336
# fHbp m001200 = biological target: T4, fHbp m001200
# fHbp m002333 = biological target: T5, fHbp m002333
# fHbp m001497 = biological target: T6, fHbp m001497
# fHbp m002417 = biological target: T7, fHbp m002417
# fHbp m001199 = biological target: T8, fHbp m001199
# fHbp m001015 = biological target: T9, fHbp m001015
Binder,Kd (fHbp m001720) [nM],koff (fHbp m001720) [s⁻¹],kon (fHbp m001720) [M⁻¹ s⁻¹],Kd (fHbp m001847) [nM],koff (fHbp m001847) [s⁻¹],kon (fHbp m001847) [M⁻¹ s⁻¹],Kd (fHbp m002336) [nM],koff (fHbp m002336) [s⁻¹],kon (fHbp m002336) [M⁻¹ s⁻¹],Kd (fHbp m001200) [nM],koff (fHbp m001200) [s⁻¹],kon (fHbp m001200) [M⁻¹ s⁻¹],Kd (fHbp m002333) [nM],koff (fHbp m002333) [s⁻¹],kon (fHbp m002333) [M⁻¹ s⁻¹],Kd (fHbp m001497) [nM],koff (fHbp m001497) [s⁻¹],kon (fHbp m001497) [M⁻¹ s⁻¹],Kd (fHbp m002417) [nM],koff (fHbp m002417) [s⁻¹],other results
B1,0.788,0.000292,370200 ± 1240,0.348,0.000123,353300 ± 2150,< 0.001,< 1e-07,676300 ± 4120,0.219,0.000303,1.385e+06 ± 5610,0.0267,6.18e-06,231300 ± 2110,0.563,0.000176,311700 ± 2460,0.502,0.000179,kon (fHbp m002417): 356800 ± 1380 M⁻¹ s⁻¹; Kd (fHbp m001199): 0.329 nM; koff (fHbp m001199): 0.000132 s⁻¹; kon (fHbp m001199): 400500 ± 3250 M⁻¹ s⁻¹; Kd (fHbp m001015): 1.11 nM; koff (fHbp m001015): 0.000418 s⁻¹; kon (fHbp m001015): 375100 ± 1120 M⁻¹ s⁻¹
B2,1.04,0.000368,354900 ± 1290,108,0.00885 ± 0.000103,81800 ± 5640,47.1,0.01231 ± 0.000116,261000 ± 9540,0.243,0.000202,830700 ± 4100,166,0.01686 ± 0.000166,102000 ± 4590,3.06,0.000593,193000 ± 2790,95.7,0.00962,kon (fHbp m002417): 101000 ± 1890 M⁻¹ s⁻¹; Kd (fHbp m001199): 25.1 nM; koff (fHbp m001199): 0.0095 s⁻¹; kon (fHbp m001199): 378900 ± 3300 M⁻¹ s⁻¹; Kd (fHbp m001015): 187 nM; koff (fHbp m001015): 0.02355 ± 0.000153 s⁻¹; kon (fHbp m001015): 126000 ± 5980 M⁻¹ s⁻¹
